Assay results reported in patent publication US20250043302A1, “MUTATED HYDROXYPHENYLPYRUVATE DIOXYGENASE POLYPEPTIDE, AND CODING GENE AND USE THEREOF” (BEIJING DABEINONG BIOTECHNOLOGY CO., LTD., priority 2021, published 2025).

Experiments:
Format in all cases: in vivo
[1] = test system: Arabidopsis thaliana T1 plants; assay: Isoxaflutole tolerance of transgenic Arabidopsis thaliana T1 plants (spray, bleached leaf area grade, damage score); conditions: Table 11; for Classification and statistics of the grade of pesticide damage Grade 0: number of plants at grade 0; for Classification and statistics of the grade of pesticide damage Grade 1: number of plants at grade 1; for Classification and statistics of the grade of pesticide damage Grade 2: number of plants at grade 2; for Classification and statistics of the grade of pesticide damage Grade 3: number of plants at grade 3; for Scores: pesticide damage score;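 as to Scores: Weighted damage index from 0 to 100 where higher means more damage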
Summary of the method: (§1)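 Read-out: per-plant damage grade 0–3 from proportion of bleached leaf area at 7 DAT (1 <50%, 2 >50%, 3 100%). Plants were T1 transformants, glufosinate-selected, plus wild-type CK, sprayed 18 days post-sowing. Rates: topramezone 25–200, isoxaflutole 35–280, mesotrione 52.5–420 g ai/ha.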

[2] = test system: Arabidopsis thaliana T1 plants; assay: Mesotrione tolerance of transgenic Arabidopsis thaliana T1 plants (spray, bleached leaf area grade, damage score); design: Scores: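 damage score 0-100 computed as Σ(N×S)/(T×M)×100 over grades 0-3 with higher meaning more damage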; conditions: Table 12; for Classification and statistics of the grade of pesticide damage Grade 0: number of plants at grade 0; for Classification and statistics of the grade of pesticide damage Grade 1: number of plants at grade 1; for Classification and statistics of the grade of pesticide damage Grade 2: number of plants at grade 2; for Classification and statistics of the grade of pesticide damage Grade 3: number of plants at grade 3; for Scores: pesticide damage score
Summary of the method: as §1

[3] = test system: Arabidopsis thaliana T1 plants; assay: Topramezone tolerance of transgenic Arabidopsis thaliana T1 plants (spray, bleached leaf area grade, damage score); conditions: Table 10; for Classification and statistics of the grade of pesticide damage Grade 0: number of plants at grade 0; for Classification and statistics of the grade of pesticide damage Grade 1: number of plants at grade 1; for Classification and statistics of the grade of pesticide damage Grade 2: number of plants at grade 2; for Classification and statistics of the grade of pesticide damage Grade 3: number of plants at grade 3; for Scores: pesticide damage score
Summary of the method: as §1

B1: HPPDm-7-02: nucleotide sequence encoding AsHPPDm-A107-K351N-F372A-F383W with mutated C-terminal; vector DBN11788 (nucleic acid)
DNA: ATGCCACCTACTCCAGCTACAGCTACTGGTGCTGCTGCTGCTGCCGTTACTCCTGAGCACGCTGCCAGGTCATTCCCCAGGGTGGTTCGCGTGAACCCCAGATCTGATAGGTTCCCAGTTCTGAGCTTCCACCATGTTGAGCTGTGGTGCGCTGATGCTGCTTCTGCTGCTGGCAGGTTCTCTTTCGCTCTTGGTGCTCCACTCGCTGCTAGATCTGATCTGTCTACAGGAAATAGCGCTCATGCCTCACTCCTGCTTCGCTCAGGTGCTTTGGCCTTCCTCTTCACCGCTCCATATGCTCCCCCACCTCAGGAGGCTACTGCTGCTGCTACAGCCTCCATTCCAAGCTTCTCAGCTGATGCCGCTAGAACCTTCGCTGCTGCTCATGGACTTGCCGTGAGGTCTGTTGGTGTTCGCGTGGCTGATGCTGCTGAGGCTTTCAGAGTTTCCGTTGCCGGCGGAGCTAGGCCAGCTTTCGCTCCTGCTGATTTGGGACATGGTTTCGGCCTGGCTGAGGTTGAGCTTTACGGTGACGTGGTTCTCCGCTTCGTGTCTTACCCAGATGAGACTGACCTGCCTTTCCTTCCCGGCTTCGAGAGAGTTTCCTCTCCTGGTGCCGTGGATTACGGCCTGACAAGGTTCGACCACGTGGTTGGAAACGTTCCCGAGATGGCTCCAGTGATCGATTACATGAAGGGCTTCCTTGGATTCCATGAGTTCGCCGAGTTCACTGCTGAGGACGTGGGAACCACTGAGTCCGGTTTGAACTCTGTGGTTCTCGCCAACAATTCTGAGGCTGTTTTGCTCCCTCTGAATGAGCCTGTGCATGGAACCAAGAGGAGAAGCCAGATTCAAACTTACCTGGAGTACCACGGTGGCCCTGGAGTTCAGCATATCGCCCTTGCTTCTAATGATGTGTTGCGCACACTCAGAGAGATGCGCGCCAGAACCCCCATGGGAGGTTTCGAGTTCATGGCCCCACCACAGGCTAAGTACTACGAGGGCGTTAGAAGGATTGCTGGAGACGTGTTGAGCGAGGAGCAGATCAATGAGTGCCAAGAGCTGGGTGTTCTTGTGGATAGGGATGACCAGGGCGTTCTGCTTCAAATTGCCACTAAGCCAGTGGGCGACCGCCCTACATTCTGGCTTGAGATGATTCAAAGAATCGGCTGCATGGAGAAGGATGAGGTTGGACAGGAGTACCAAAAGGGCGGATGCGGTGGCTTCGGAAAGGGTAACTTCAGCGAGTTGTTCAAGTCAATCGAGGAGTATGAGAAGACCTTGGAGGCCAAGCAGCTCGTGGGTTGA
modifications: mutated C-terminus; HPPDm-7-02 Nucleotide Sequence
notes: vector DBN11788
Resistance evaluation ([1]; isoxaflutole 140 g ai/ha (2×)): Highly resistant | Classification and statistics of the grade of pesticide damage Grade 0 ([1]; isoxaflutole 140 g ai/ha (2×)): 16 | Classification and statistics of the grade of pesticide damage Grade 1 ([1]; isoxaflutole 140 g ai/ha (2×)): 0 | Classification and statistics of the grade of pesticide damage Grade 2 ([1]; isoxaflutole 140 g ai/ha (2×)): 0 | Classification and statistics of the grade of pesticide damage Grade 3 ([1]; isoxaflutole 140 g ai/ha (2×)): 0 | Scores ([1]; isoxaflutole 140 g ai/ha (2×)): 0 | Resistance evaluation ([1]; isoxaflutole 280 g ai/ha (4×)): Highly resistant | Classification and statistics of the grade of pesticide damage Grade 0 ([1]; isoxaflutole 280 g ai/ha (4×)): 16 | Classification and statistics of the grade of pesticide damage Grade 1 ([1]; isoxaflutole 280 g ai/ha (4×)): 0 | Classification and statistics of the grade of pesticide damage Grade 2 ([1]; isoxaflutole 280 g ai/ha (4×)): 0 | Classification and statistics of the grade of pesticide damage Grade 3 ([1]; isoxaflutole 280 g ai/ha (4×)): 0 | Scores ([1]; isoxaflutole 280 g ai/ha (4×)): 0 | Resistance evaluation ([2]; mesotrione 210 g ai/ha (2×)): Highly resistant | Classification and statistics of the grade of pesticide damage Grade 0 ([2]; mesotrione 210 g ai/ha (2×)): 16 | Classification and statistics of the grade of pesticide damage Grade 1 ([2]; mesotrione 210 g ai/ha (2×)): 0 | Classification and statistics of the grade of pesticide damage Grade 2 ([2]; mesotrione 210 g ai/ha (2×)): 0 | Classification and statistics of the grade of pesticide damage Grade 3 ([2]; mesotrione 210 g ai/ha (2×)): 0 | Scores ([2]; mesotrione 210 g ai/ha (2×)): 0 | Resistance evaluation ([2]; mesotrione 420 g ai/ha (4×)): Highly resistant | Classification and statistics of the grade of pesticide damage Grade 0 ([2]; mesotrione 420 g ai/ha (4×)): 15 | Classification and statistics of the grade of pesticide damage Grade 1 ([2]; mesotrione 420 g ai/ha (4×)): 1 | Classification and statistics of the grade of pesticide damage Grade 2 ([2]; mesotrione 420 g ai/ha (4×)): 0 | Classification and statistics of the grade of pesticide damage Grade 3 ([2]; mesotrione 420 g ai/ha (4×)): 0 | Scores ([2]; mesotrione 420 g ai/ha (4×)): 2 | Resistance evaluation ([3]; topramezone 100 g ai/ha (4×)): Highly resistant | Classification and statistics of the grade of pesticide damage Grade 0 ([3]; topramezone 100 g ai/ha (4×)): 16 | Classification and statistics of the grade of pesticide damage Grade 1 ([3]; topramezone 100 g ai/ha (4×)): 0 | Classification and statistics of the grade of pesticide damage Grade 2 ([3]; topramezone 100 g ai/ha (4×)): 0 | Classification and statistics of the grade of pesticide damage Grade 3 ([3]; topramezone 100 g ai/ha (4×)): 0 | Scores ([3]; topramezone 100 g ai/ha (4×)): 0 | Resistance evaluation ([3]; topramezone 200 g ai/ha (8×)): Highly resistant | Classification and statistics of the grade of pesticide damage Grade 0 ([3]; topramezone 200 g ai/ha (8×)): 16 | Classification and statistics of the grade of pesticide damage Grade 1 ([3]; topramezone 200 g ai/ha (8×)): 0 | Classification and statistics of the grade of pesticide damage Grade 2 ([3]; topramezone 200 g ai/ha (8×)): 0 | Classification and statistics of the grade of pesticide damage Grade 3 ([3]; topramezone 200 g ai/ha (8×)): 0 | Scores ([3]; topramezone 200 g ai/ha (8×)): 0
